The text below walks through data of patent US20050175986A1 (SMIT KLINE BEECHAM, published 2005).

In general, EC50 refers to the midpoint of the concentration-response curve.

The assay has as its target T1, recombinant F protein of Respiratory Syncytial Virus (Respiratory Syncytial Virus, UniProt P03420 26-524).
T1 construct: Recombinant F-protein as described in P. Tsui et al, J. Immunol; 157:772-780 (1996); Coated on plastic in the ELISAs; also called recombinant RSV F-protein; rF protein
The experiment in a line: solid phase ELISA on coated recombinant F protein. The method, then: Binding of the Gλ-1 mABs to recombinant F protein was measured in a standard solid phase ELISA. Antigen diluted in PBS pH 7.0 was adsorbed onto polystyrene round-bottom microplates (Dynatech, Immunolon II) for 18 hours. Wells were then aspirated and blocked with 0.5% boiled casein (BC) in PBS containing 1% Tween 20 […] for two hours. Antibodies (50 μl/well) were diluted to varying concentrations in PBS/0.5% BC containing 0.025% Tween 20 and incubated in antigen coated wells for one hour. Plates were washed three times with PBS containing 0.05% Tween 20, using a Titertek 320 microplate washer, followed by addition of HRP-labelled protein A/G (50 μl) diluted 1:5000. After washing three times, TMBlue substrate (TSI, #TM102) was added and plates were incubated an additional 15 minutes. The reaction was stopped by addition of 1 N H₂SO₄ and absorbance read at 450 nm using a Biotek ELISA reader.
Binding of the Gλ-1 mABs to rF protein was inhibited by mAb B4, for which the F protein amino acids critical for antigen recognition are amino acids 268, 272 and 275 of SEQ ID NO: 20). Binding of the Gλ-1 mABs to rF protein was not inhibited by mAb RSMU19, for which F protein amino acid 429 of SEQ ID NO: 20 is critical for antigen recognition.

T1 sequence (P03420 26-524 limits assumed): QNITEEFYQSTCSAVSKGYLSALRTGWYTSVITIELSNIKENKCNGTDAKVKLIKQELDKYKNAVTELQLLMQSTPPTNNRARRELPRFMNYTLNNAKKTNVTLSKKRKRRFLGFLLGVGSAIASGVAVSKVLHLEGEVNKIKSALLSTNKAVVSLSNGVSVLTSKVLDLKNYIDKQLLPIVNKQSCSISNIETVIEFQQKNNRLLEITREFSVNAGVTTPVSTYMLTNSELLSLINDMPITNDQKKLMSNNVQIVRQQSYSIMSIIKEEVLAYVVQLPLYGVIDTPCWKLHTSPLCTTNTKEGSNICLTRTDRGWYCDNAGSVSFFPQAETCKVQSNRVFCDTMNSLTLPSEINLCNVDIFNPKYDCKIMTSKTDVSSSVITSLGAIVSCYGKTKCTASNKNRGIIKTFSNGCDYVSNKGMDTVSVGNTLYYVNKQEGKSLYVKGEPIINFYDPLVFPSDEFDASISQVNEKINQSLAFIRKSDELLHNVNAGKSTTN

B1: Gλ-1B monoclonal antibody (antibody, human IgG1, V domains shown)
VH: EVQLVESGGGLVQPGGSLRLSCAASGVSLSGYKMNWVRQAPGKGLEWVSSITGMSNYIHYSDSVKGRFTISRDNAMNSLYLQMNSLTAEDTGVYYCATQPGELAPFDHWGQGTLVTVSS
VL: QSVLTQPPSVSAAPGQKVTISCTGSSSNLGAGYDVHWYRQLPGTAPKLLIYDNNNRPSGVPDRFSGSKSGPSASLAISGLQAEDEADYYCQSYDSSLNGYVFGTGTQLTVLG
notes: Full length human IgG1, lambda light chain; made in COS and CHO cells; also called Gλ-1 mAB B; mAB B
In the case of B1, the EC50 came to 2.6 ng/mL.
